In paper PMC9757060 (Nucleic Acids Research, 2022):
Residue numbers refer to the chain shown, from its start. Names and notes keep the numbering of the source. Each block holds one molecule with its values, some of them ahead of it.

Tests used:
Test in all cases: ITC
[1] = biological target: mouse UHRF1 PHD finger (residues 304–372) (mouse) (UniProt Q8VDF2)
[2] = biological target: T1, mouse UHRF1 PHD finger (residues 304–372) (mouse, UniProt Q8VDF2 304-372)
T1 sequence (looked up): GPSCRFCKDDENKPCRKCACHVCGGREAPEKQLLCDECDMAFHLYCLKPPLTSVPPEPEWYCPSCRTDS

[3] = biological target: T2, mouse UHRF1 PHD finger (residues 304–372) L337A (mouse, UniProt Q8VDF2 304-372, L337A)
T2 sequence (looked up): T1 sequence (looked up) with L34A

- Kd [1]: 3520 nM
Molecule: N-terminal tail of PAF15 (PCNA-associated factor 15) (peptide)

- Kd [2]: 45 nM
Molecule: KRRVRTLLSVLKDPIAKMRRLVRIEQRQKRLEGN (peptide, UniProt Q8QZY3 85-118, looked up) [mDPPA3 residues 85–118]

- Kd [2]: 27.7 nM
- Kd [3]: > 43000 nM
B1: mDPPA3 residues 76–127 followed by an additional Trp (mDPPA3 76–128W) (domain or fragment, mouse)
chain: RREVQSAFPKRRVRTLLSVLKDPIAKMRRLVRIEQRQKRLEGNEFERDSEPFW

- Kd [2]: 1080 nM
B2: mDPPA3 76–128W L91A/V94A (domain or fragment, mouse)
chain: B1 chain with L16A, V19A

- Kd [2]: 361 nM
B3: mDPPA3 76–128W R89A (domain or fragment, mouse)
chain: B1 chain with R14A

- binding result [2]: binds
B4: mDPPA3 76–128W R104A (domain or fragment, mouse)
chain: B1 chain with R29A
